Assay results taken from PMC12333375.

Tests used:
[1] = molecular target: AAV8 capsid (adeno-associated virus serotype 8 capsid) (adeno-associated virus serotype 8 (AAV8)) (UniProt Q8JQF8); assay: native MS; orbitrap-based charge detection-mass spectrometry (CD-MS) of nSEC fraction F2 (capsid dimers), infused by CE with sheath liquid interface at about 80 nL/min, 200 mM ammonium acetate, nano ESI, triplicates
[2] = molecular target: AAV8 capsid (adeno-associated virus serotype 8 capsid) (adeno-associated virus serotype 8 (AAV8)) (UniProt Q8JQF8); assay: SEC-MALS; offline native SEC (AdvanceBio SEC 300 x 7.8 mm, 2.7 um, 500 A) with 20-angle MALS and DAD at 260 and 280 nm; 1:1 (v/v) mixture of empty and full AAV8 capsids; 200 mM ammonium acetate, 1.0 mL/min, 6 replicates; capsid dimer against capsid monomer by peak area

## AAV8 capsid (adeno-associated virus serotype 8 capsid) (from UniProt Q8JQF8 1-738) (complex)
[1]
  % empty capsid dimers (CD-MS): 1%
  % filled capsid dimers (CD-MS): 3%
  stoichiometry N: 2
[2]
  % AAV8 capsid dimer (peak area, absorbance at 260 nm): 0.9%
  % AAV8 capsid dimer (peak area, absorbance at 280 nm): 1%
  stoichiometry N: 2
